Test [1] has as its target B1 clade EV-D68 isolate (Enterovirus D68). Briefly: cell-based or functional assay.
Test [2] concerns the target Enterovirus D68 US/MO/14-18947 virus particle (B1 clade) (Enterovirus D68). In words: cryo-EM structure.
The target is the same in test [3]. In words: cryo-EM of Fab with B1 clade virus.

B1: mAb EV68-159 (antibody, V domains shown)
VH: EVQLVESGGGLVKPGGSLRLSCAASGFTFSTYIMTWVRQAPGRGLEWVSSISTSSVYTFYADSLKGRFTISRDNAKNSVYLQMNSLRADDTAVYYCAREEGFRAYNLYWGQGTLVTVSS
VL: QSVLTQPPSASGTPGQRVTISCSGSSSNIEYNYVYWYQKFPGTAPKLLIYKNNQRPSGVPDRFSGSKSGTSASLAISGLRSEDEGDYYCAAWDDILSGVVFGGGTKLTVL
Turning to B1, the IC50 in a CCID50 neutralization assay in test [1] was 0.32 ng/mL.

B2: Fab EV68-159 (Fab, V domains shown)
VH: EVQLVESGGGLVKPGGSLRLSCAASGFTFSTYIMTWVRQAPGRGLEWVSSISTSSVYTFYADSLKGRFTISRDNAKNSVYLQMNSLRADDTAVYYCAREEGFRAYNLYWGQGTLVTVSS
VL: QSVLTQPPSASGTPGQRVTISCSGSSSNIEYNYVYWYQKFPGTAPKLLIYKNNQRPSGVPDRFSGSKSGTSASLAISGLRSEDEGDYYCAAWDDILSGVVFGGGTKLTVL
In the case of B2, in test [2], the share of the masked surface area from the heavy chain was 77% and the viral surface area masked by each Fab was 990 Å^2. This molecule also came in with a copies of Fab bound to the virus particle in test [3] of 60 copies.

B3: Fab EV68-228 (Fab, V domains shown)
VH: QVQLQESGPGLVKPSETLSLTCTVSGYLISNGYYWGWIRQSPGKGLEWIGSIYYTRDTYYNWSLKSRITISVDTSKKQFSLKLYSVTAADTAVYYCVRHEGSCNDGSCYGSFVDNWGQGTLVTVSS
VL: DIQMTQSPSSVSASVGDRVTLTCRASQDISSWLAWYQQKPGKAPKLLIYAASSLQSGVPSRFSGSGSGTHFTLTISSLQPEDFATYFCQQADSFITFGGGTKVEIK
In test [2], B3 registered a share of the masked surface area from the heavy chain of 84% and a viral surface area masked by each Fab of 1170 Å^2. In addition, the copies of Fab bound to the virus particle in test [3] came to 60 copies.

The values above are taken from patent US20220289828A1.
